{
  "source": "patent US20200263147A1",
  "key": {"[1]": {"target": "UL37N, the N-terminal half (residues 1 to 496) of pseudorabies virus (PRV) UL37 (pseudorabies virus (PRV))", "test": "crystal structure, interface analysis calculated without the calcium ions"}, "[2]": {"target": "UL37N, the N-terminal half (residues 1 to 496) of pseudorabies virus (PRV) UL37 (pseudorabies virus (PRV))", "test": "crystal structure, interface analysis (PISA), calcium present"}},
  "data": [
    {"substance": "UL37N, the N-terminal half (residues 1 to 496) of pseudorabies virus (PRV) UL37", "values": [
      {"measurement": "buried surface area", "setting": "[1]", "result": 1500, "unit": "Å2"},
      {"measurement": "buried surface area", "setting": "[2]", "result": 1730, "unit": "Å2"}
    ]}
  ]
}
